This passage reports ELISA response (average) and MFI results from patent US11155596B2, “Polypeptide” (AFFIBODY AB, priority 2016, dated 2021).

The target of test [1] is human PD-L1 Fc Chimera (R&D Systems, cat. no. 156-B7-100) (human) (UniProt Q9NZQ7). The experiment in a line: ELISA screen, 40 pM hPD-L1. In general terms: An ELISA detects its analyte on a solid surface through an enzyme-linked reagent.
The target in test [2] is PD-L1 on PD-L1 expressing cells (IFNg-stimulated THP-1 cells; MDA-MB-231 cells) (Homo sapiens (Human)) (UniProt Q9NZQ7). The experiment in a line: FACS, MDA-MB-231 cells, 0.625 µg/ml; negative control (buffer) 69. (In general: A flow cytometer gives signals particle by particle.)
Test [3] shares this target. The experiment in a line: FACS, MDA-MB-231 cells, 1 µg/ml, positive control.

human PD-L1 Fc Chimera (R&D Systems, cat. no. 156-B7-100) (human), sequence (Q9NZQ7 19-239, change not shown): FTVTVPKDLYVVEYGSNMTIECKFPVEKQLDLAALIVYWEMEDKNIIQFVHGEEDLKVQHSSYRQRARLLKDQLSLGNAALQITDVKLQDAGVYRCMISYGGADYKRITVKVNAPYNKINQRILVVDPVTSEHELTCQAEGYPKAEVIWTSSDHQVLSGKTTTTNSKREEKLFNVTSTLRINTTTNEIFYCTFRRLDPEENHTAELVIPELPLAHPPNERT

For the substance “fusion protein ABD with no Z-fusion partner (periplasmic negative control) (from UniProt P19909)”, the ELISA response (average) in test [1] was found to be 0.051 AU.

Regarding “ipilimumab (Yervoy, Bristol-Myers Squibb, bought) (antibody)”, the MFI in test [2] turned out to be 64. In turn, “mouse anti-PD-L1 antibody (R&D Systems, cat. no. MAB1561) (tool reagent)” had an MFI in test [3] of 610.
